Measured values published in article PMC2628407.

How the values were obtained:
[1] = test system: FMRP (His-tagged recombinant); assay: filter binding competition; conditions: vs 32P-N19; EMSA or filter binding as in ref 4, with K+ or Na+; buffer, pH and temperature not in the material
FXR1P Isoe = assay: filter binding competition; conditions: self-competition, 32P-Sod1; EMSA or filter binding as in ref 4, with K+ or Na+; buffer, pH and temperature not in the material
[2] = test system: FMRP (His-tagged recombinant); assay: EMSA competition; conditions: vs 32P-N19; EMSA or filter binding as in ref 4, with K+ or Na+; buffer, pH and temperature not in the material

Row | Substance | IC50 [1] [nM] | IC50 (FXR1P Isoe) [nM] | binding signal (% competition at 5 nM) [2]
1 | Sod1-5' region | 3 |  | 
2 | Sod1 full-length mRNA | 3 | 20 | 65
